Here are results for 20 sequences from the DeepSol protein solubility set.

This data set in a line: soluble on expression in E. coli; label from the status in PepcDB or PDB records.
Consider “MTITSFGPANRIARTAETHPLTWRLRDDGEPVWLDEYQTKDGYAAARKALTQQAPDDIVQSVKDSGLKGRGGAGFPTGVKWGLMPKDESMNIRYLLCNADEMEPNTWKDRMLMEQLPHLLIEGMLISARALKAYRGYIFLRGEYVTAAKHLNRAVAEAKAAGLLGKNILGTGFDFELFVHTGAGRYICGEETALINSLEGRRANPRSKPPFPAAVGVWGKPTCVNNVETLCNVPAIVNNGNDWYKSLAREGSEDHGTKLMGFSGKVKNPGLWELPFGVQARELFEDYAGGMRDGFTLKCWQPGGAGTGFLLPEHLDAQMYAGGIAKVGTRMGTGLAMAVDDSVNMVSLLRNMEEFFAQESCGFCTPCRDGLPWSVKILRAIENGHGQPGDIETLLGLVNFLGPGKTFCAHAPGAVEPLGSAIKYFRSEFEAGIAPASAAMLVPGKSPTVVGALEHHHHHH”, for which the “soluble on expression in E. coli” value is reported as “not soluble”.
Next, “MSLTRRATSLLPPNATALERRLADTNARISDIPVDIGALMDPDAIPLRFLPWLAWHLGVETWKDYWPEQVKRARVKAAIRIARKKGTAAAVREVCASFGANVAMREWFEKTPKGRPGTFEILMTVGARDGIPATAEYVADIIAEVDRAKRGTAHYTFTQGFGATGTQRIGAGARVAVYRRLSLTDIEGHHHHHH”: “not soluble”.
Next, “MALSKRELDELKPWIEKTVKRVLGFSEPTVVTAALNCVGKGMDKKKAADHLKPFLDDSTLRFVDKLFEAVEEGRSSRHS”: “soluble”; “MGSDKIHHHHHHMFLSSMKLGIQSYSLRKLTYENALKVMSELGISYVEAFPRHLPPSSNSVKDIINLHKENGVKVIAHGVNHLKSDKKELRSIFDFANKVEIEVITADPDEDCLNLMSDLVKEYDIKVAIHNHGPYHRWGSYKKIYEFTKNLDYRVGMCLDLAHLFRYGENPIEAVNTLRDRIHDIHVKDVNNKGEDVIVGSGILDVKGVIGKVKELNLDIPLMIEYEPEPENPLPGIVKSLEYVKKLL”: “not soluble”.
Next, “MALTNAQILAVIDSWEETVGQFPVITHHVPLGGGLQGTLHCYEIPLAAPYGVGFAKNGPTRWQYKRTINQVVHRWGSHTVPFLLEPDNINGKTCTASHLCHNTRCHNPLHLCWESADDNKGRNWCPGPNGGCVHAVVCLRQGPLYGPGATVAGPQQRGSHFVV”: “soluble”; “MYPLTLLRISRNRIVELELKNNDQLRGLLHKCDMAMNLHLKSVTIQKEDGSSIFINECYLKGTSIRLVKLESKILLEQREECVSNNKA”: “not soluble”.
Consider “GHMASGSLGELQESQSRLEAATKECQALEGRARAASEQARQLESEREALQQQHSVQVDQLRMQGQSVEAALRMERQAASEEKRKLAQLQVAYHQLFQEYDNHIKSSVVGSERKRGMQLEDLKQQLQQAEE”, for which the “soluble on expression in E. coli” value is given as “soluble”.
Next, “MSLRVFLTGATGFVGSHVLKELLAAGHQVTGLTRSDAGGRWLVQAGASVHRGTLEDAGSLARGAEQADAVIHTAFDHVFSRYLENCAKDARVISAMAEVLKGSNRPLIITSATGIGAPGAGLPAVEEVVDWAHALPRIASERAGREAADKGVSVAVVRLPQVHDTEKQGLISPLIDIGRAKGVSAYVGDGSNHWSAVHIDDAARLYRLALEHHEAGARYHAVAEEGVSMRQIAETIGAGLGVPVLALQADEVVGHFGWLAPFMAMDMRASSAATRRRLNWTPTGPDLLTDLKAMDYRKLRTASEGHHHHHH”: “soluble”; “AQHPPYCRNQPGKCQIPLQSLFDRATTVANYNSKLAGEMVNRFDEQYGQGINSESKVINCHTSSITTPNSKAEAINTEDKILFKLVISLLHSWDEPLHHAVTELANSKGTSPALLTKAQEIKEKAKVLVDGVEVIQKRIHPGEKNEPYPVWSEQSSLTSQDENVRRVAFYRLFHCLHRDSSKIYTYLRILKCRLTSCET”: “soluble”.
Turning to “MGSDKIHHHHHHMKKMKIGTQNQAFFPENILEKFRYIKEMGFDGFEIDGKLLVNNIEEVKAAIKETGLPVTTACGGYDGWIGDFIEERRLNGLKQIERILEALAEVGGKGIVVPAAWGMFTFRLPPMTSPRSLDGDRKMVSDSLRVLEQVAARTGTVVYLEPLNRYQDHMINTLADARRYIVENDLKHVQIIGDFYHMNIEEDNLAQALHDNRDLLGHVHIADNHRYQPGSGTLDFHALFEQLRADNYQGYVVYEGRIRAEDPAQAYRDSLAWLRTC”, the “soluble on expression in E. coli” value is reported as “not soluble”.
Next, “MTYDYVIVGGGIVGVSTGWQLKRRYPEKSVLLIEKEAGFSRHQTGHNSGVIHAGVYYAPGSLKADFCKRGVERTLAFCAQHNIPVENCGKLLVATNEQELERMHALYDRCLQNQIDVEKLDAAQLKLAEPNIRGLGAILVKATSIVNYRLVTEKMAEAFMQLGGDVKIGTEVVGLEETPSSITLTCQQKNQRVSYQAKFLVTCSGLMADRLTKMLGLPTDFQIIPYRGEYYRLAPKHNQVVRHLIYPIPDPELPFLGVHLTRMIDGCVTVGPNAVQGFKREGYGKWNVSLRDVWEMVCFPGFWKVSAKHFKTGMVEMKNSWWKAGYLQLVRKYCPSIELTDLEPYPAGIRAQAVLSDGTLVHDFLFAESPRSLHVCNAPSPAATSAMPIGEYLCDKIAEKSLALEHHHHHH”: “soluble”; “GDYYDYLFKIVLIGDSGVGKSNLLSRFTRDEFNLESKSTIGVEFATKSIQLKNNKIIKAQIWDTAGQERYRAITSAYYRGAVGALLVYDITKKNSFENIEKWLKELRDNADSNIVILLVGNKSDLKHLRVINDNDATQYAKKEKLAFIETSALEATNVELAFHQLLNEIYNVRQKKQATKN”: “soluble”; “MAKKTSSKGKLPPGPSPLPVLGNLLQMDRKGLLRSFLRLREKYGDVFTVYLGSRPVVVLCGTDAIREALVDQAEAFSGRGKIAVVDPIFQGYGVIFANGERWRALRRFSLATMRDFGMGKRSVEERIQEEARCLVEELRKSKGALLDNTLLFHSITSNIICSIVFGKRFDYKDPVFLRLLDLFFQSFSLISSFSSQVFELFSGFLKYFPGTHRQIYRNLQEINTFIGQSVEKHRATLDPSNPRDFIDVYLLRMEKDKSDPSSEFHHQNLILTVLSLFFAGTETTSTTLRYGFLLMLKYPHVTERVQKEIEQVIGSHRPPALDDRAKMPYTDAVIHEIQRLGDLIPFGVPHTVTKDTQFRGYVIPKNTEVFPVLSSALHDPRYFETPNTFNPGHFLDANGALKRNEGFMPFSLGKRICLGEGIARTELFLFFTTILQNFSIASPVPPEDIDLTPRESGVGNVPPSYQIRFLARHHHHHH”: “soluble”.
Next, “MGSDKIHHHHHHMLTWRKHGLIYSPQAHPPLIGGAGYAQSPQALVFDDFVRIYFSTRELDDKNNKFISRVSYVDMDKNLQEILKVSAAPVIAHAELGTFDEHGIFPFNVLRHNGAVMAWTTGWNRRVSVSVDTSIGLAISHDGGDTFQRHATGPVMSASLHEPYLVGDAFVQHIEGRFHMWYIYGVGWKRQQSDSPPDRIYKIAHAVSDDGIDWVRESKPIIADLLGDDECQALPTVIKVGNRYHMIFCYRECFDFRLGSGRGYRLGYAWSDDLVTWHRDDTQVPAVSESGEWDSEMQCYPHLFQCDEKVYLLYNGNAFGKEGFGLAELTACSE”: “not soluble”; “MNRYPGIPRNEWSAGWKRTACIVKAEDGSWGFGFTLHSGVTERIINDHLSKILIGRNCMSTEMLWDVMQQSTISYGTSGLSSFAISAVDNAIWDLKGKILDRPVYELIGGPQKDKIFCYASNTSFEYGTKNSIEWFLELGFKAVKLFLREGPESNLEGINRAEQLVASTREQVGKDVEIAVDAWMSLNNEYAVRLAEVLKPYRIKWLEDYLNPENLDGYQNLRNRIPWQTLATGEHWYSLYPFALAASKGIVDIFQPDLNWVGGITAGIKICHLAEAHGLSVIPHASTNYPYGQHLAFSMPSVPWAERSEGVSPPGVPLEEMVLLPGTPVIKDGYIIPSDAPGFGLEITEDWLRDRAV”: “soluble”; “MKTEHKQVVVVGAGPSGSTVSALLKSRGIDVVVIEKATFPRFSIGESLLPACMEVVELAGMTEAVKQHGFQFKDGAAFRRNGVYTHFDFTDKFTAGPGTTFQVQRASFDKVLADSAAEQGVDIRYQHELVSLAFEGKKSRLEVVGPDKQAYQIEADFVLDASGFGRVLPRLLDLEEPSCLPPRKAIFTHIEDHISPQEPEYDRNKILISVHPENHDVWYWLIPFSNGTCSFGVVGEPEFFEQYPEDKLAALQQLANEEPGLASLLRNAKYPNPVGELGGYSANVKRLATEHYALLGNAGEFLDPVFSSGVTIAMKSAQFAADCVVRQLNGEVVDWQEEYSERLMVGVNTFRTYVEGWYNGTLQDVIFYQAPNPRIKQMISAILAGYAWDTENPYVKQSEQRLSTLAELVRGEGFLEHHHHHH”: “soluble”.
Next, “MGSDKIHHHHHHMAPRIKTRDRIAQASLELFNAQGERSVTTNHIATHLGISPGNLYYHYPNKQAIIAELFAEYESHVESFLRLPEGRGLTVDDKTFYLEALLAAMWRYRFLHRDLEHLLESDPELAARYRAFAQRCLVNAKAIYRGFTEAGILRMNETQLEALTLNAWIILTSWVRFLCTTLDLDGDLSEAQLRRGIYQVLALESGHIEAQAQDAVDGISERLYVPL”: “not soluble”; “RQEQTETLAEERAETVANLEELNALILQRMRTGILVVDSRQAILLANQAALGLLRQDDVQGASLGRHSPMLMHCMKQWRLNPSLRPPTLKVVPDGPTVQPSFISLNREDDQHVLIFLEDISQIAQQAQQMKLAGLGRLTAGIAHEIRNPLGAISHAAQLLQESEELDAPDRRLTQIIQDQSKRMNLVIENVLQLSRRRQAEPQQLDLKEWLQRFVDEYPGRLRNDSQLHLQLGAGDIQTRMDPHQLNQVLSNLVQNGLRYSAQAHGRGQVWLSLARDPESDLPVLEVIDDGPGVPADKLNNLFEPFFTTESKGTGLGLYLSRELCESNQARIDYRNREEGGGCFRITFA”: “not soluble”; “MAHHHHHHMRASERVPADDAATRVCPHSLIDSPSPSLMQAASAVATATATSSGIANLKQEASHEERLKVADHTAVKAWSLLNKMWYPDYHMASLAGWMGVPGGLCYHNGFYHVFYQYNPFSENWGPMHWGHMTSEDLVHWQHQPIALAPGELFDHDGCFSGSSVSYNNKLYIFYTGHTWRTESEKGSGNGTMGDGASFYQQQCVAVSSDGVNFEKLGAVVRPPPGYVHFRDPKVWQQDGRWWMVCGARDVTKDLGQLLLFTTEDLLKWDDTNWQVLGMTEDKNVFMWECPDMFRLGQMNVFLYSPQGMRKADYAYRNRFQSGYLLGSWNMSLVTAALSEREAGSPKGTASGSHAIGGPRWLASFDVTQRFREIDRGHDFYAPQTLLTKDGRRLIIGWMDMWESPMPTRGHGWSGCLTLPRELILDPFTGSVRMVPPKELLQLRCAQATILAQRIQESTDVLLVESCTAYELDIAFNMETSTAEKYGLWLGSGAELYVDAQSKRLVLNRHYPQHMLSGYRSCELPIGLLLQLHVFIDRSSIEVFVNNGEATFSSRVFPDEGDRALRVFSVNGTADMVGGTMWKLKATVRH”: “not soluble”.
On to “FQGAMSSSIDISKINSWNKEFQSDLTHQLATTVLKNYNADDALLNKTRLQKQDNRVFNTVVSTDSTPVTNQKSSGRCWLFAATNQLRLNVLSELNLKEFELSQAYLFFYDKLEKANYFLDQIVSSADQDIDSRLVQYLLAAPTEDGGQYSMFLNLVKKYGLIPKDLYGDLPYSTTASRKWNSLLTTKLREFAETLRTALKERSADDSIIVTLREQMQREIFRLMSLFMDIPPVQPNEQFTWEYVDKDKKIHTIKSTPLEFASKYAKLDPSTPVSLINDPRHPYGKLIKIDRLGNVLGGDAVIYLNVDNETLSKLVVKRLQNNKAVFFGSHTPKFMDKKTGVMDIELWNYPAIGYNLPQQKASRIRYHESLMTHAMLITGCHVDETSKLPLRYRVEVSWGKDSGKDGLYVMTQKYFEEYCFQIVVDINELPKELASKFTSGKEEPIVLPIWDPMGALA”, for which the “soluble on expression in E. coli” value was “soluble”.
